This is an account of results in patent US20130236458A1 (AbbVie / Abbott, published 2013).

Substitutions are numbered along the chain they refer to. Where only a bound is given, the exact number is not on record here.

The target in assay [1] is T1, Recombinant Human IL-13 (human, UniProt P35225 35-146, limits assumed).
T1 construct: bought reagent
As to the kind of experiment: SPR (Biacore). How it is done:
(§1) The BIACORE assay (Biacore, Inc, Piscataway, N.J.) determined the affinity of antibodies or DVD-Ig with kinetic measurements of on-rate and off-rate constants. Binding of antibodies or DVD-Ig proteins to a target antigen (for example, a purified recombinant target antigen) was determined by surface plasmon resonance-based measurements with a Biacore®1000 or 3000 instrument (Biacore® AB, Uppsala, Sweden) using running HBS-EP (10 mM HEPES [pH 7.4], 150 mM NaCl, 3 mM EDTA, and 0.005% surfactant P20) at 25° C. All chemicals were obtained from Biacore® AB (Uppsala, Sweden) or otherwise from a different source as described in the text. For example, approximately 5000 RU of goat anti-mouse IgG, (Fcγ), fragment specific polyclonal antibody (Pierce Biotechnology Inc, Rockford, Ill.) diluted in 10 mM sodium acetate (pH 4.5) was directly immobilized across a CM5 research grade biosensor chip using a standard amine coupling kit according to manufacturer's instructions and procedures at 25 μg/ml. Unreacted moieties on the biosensor surface were blocked with ethanolamine. Modified carboxymethyl dextran surface in flowcell 2 and 4 was used as a reaction surface. Unmodified carboxymethyl dextran without goat anti-mouse IgG in flow cell 1 and 3 was used as the reference surface. For kinetic analysis, rate equations derived from the 1:1 Langmuir binding model were fitted simultaneously to association and dissociation phases of all eight injections (using global fit analysis) with the use of Biaevaluation 4.0.1 software. Purified antibodies or DVD-Ig proteins were diluted in HEPES-buffered saline for capture across goat anti-mouse IgG specific reaction surfaces. Antibodies or DVD-Ig proteins to be captured as a ligand (25 μg/ml) were injected over reaction matrices at a flow rate of 5 μl/minute. The association and dissociation rate constants, kₒₙ (M⁻¹s⁻¹) and koff (s⁻¹) were determined under a continuous flow rate of 25 μl/minute. Rate constants were derived by making kinetic binding measurements at different antigen concentrations ranging from 10-200 nM. The equilibrium dissociation constant (M) of the reaction between antibodies or DVD-Ig proteins and the target antigen was then calculated from the kinetic rate constants by the following formula: KD=koff/kₒₙ. Binding was recorded as a function of time and kinetic rate constants were calculated.

The target of assay [2] is T2, Recombinant Human IL-17 (human, UniProt Q16552 20-155, limits assumed).
T2 construct: bought reagent; also called IL-17A
T2 sequence (looked up): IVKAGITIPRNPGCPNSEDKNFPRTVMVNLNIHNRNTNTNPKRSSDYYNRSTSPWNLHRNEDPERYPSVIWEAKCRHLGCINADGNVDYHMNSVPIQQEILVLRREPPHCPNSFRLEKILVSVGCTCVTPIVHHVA
As to the kind of experiment: SPR (Biacore). How it is done:
as §1

Assay [3] has as its target T1, Recombinant Human IL-13. As to the kind of experiment: cell-based or functional assay.
The target of assay [4] is T2, Recombinant Human IL-17. As to the kind of experiment: cell-based or functional assay.

T1 sequence (P35225 35-146 limits assumed): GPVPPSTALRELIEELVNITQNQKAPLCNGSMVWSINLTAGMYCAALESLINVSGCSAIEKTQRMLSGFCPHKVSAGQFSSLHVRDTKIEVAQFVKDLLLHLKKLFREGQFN

B1: DVD2195 (bispecific antibody)
VH: EVQLVQSGAEVKKPGSSVKVSCKASGGSFGGYGIGWVRQAPGQGLEWMGGITPFFGFADYAQKFQGRVTITADESTTTAYMELSGLTSDDTAVYYCARDPNEFWNGYYSTHDFDSWGQGTTVTVSSASTKGPSVFPLAPEVQLVQSGAEVKKPGASVKVSCKASGYTFTSYWMHWVRQAPGQGLEWIGNINPKGGSNIYNEKFQGRVTMTRDTSISTAYMELSRLRSDDTAVYYCARLDYFGDSFDLWGQGTTVTVSS
VL: EIVLTQSPDFQSVTPKEKVTITCRASQDIGSELHWYQQKPDQPPKLLIKYASHSTSGVPSRFSGSGSGTDFTLTINGLEAEDAGTYYCHQTDSLPYTFGPGTKVDIKRTVAAPDIQMTQSPSSLSASVGDRVTITCRASQGIRNYLNWYQQKPGKAPKLLIYYASNLEVGVPSRFSGSGSGTDYTLTISSLQPEDFATYYCQQDNRFPYTFGGGTKVEIKR
notes: DVD-Ig; also called DVD2195H; DVD2195L
In general, Kd refers to the constant that tells how readily two partners part at equilibrium. As usually defined, the koff is a measure of how fast the partners let go of each other. A word on the kon: it is the second-order rate constant of association. With B1, in the assay with Recombinant Human IL-13 [1], the Kd worked out at 0.014 nM, the koff is 3.7e-05 s⁻¹ and the kon is 2.6e+06 M⁻¹ s⁻¹. Further, in the assay with Recombinant Human IL-17 [2], the Kd was 0.002 nM, the dissociation rate constant (koff) was found to be 4.8e-06 s⁻¹ and the kon was 2.4e+06 M⁻¹ s⁻¹. Besides, the “C-Terminal VD IL13 Neutralization Assay IC50” value in the assay with Recombinant Human IL-13 [3] was found to be 0.052 nM. The “N-Terminal VD IL17 Neutralization Assay IC50” value with Recombinant Human IL-17 [4] is 0.0181 nM.

B2: DVD2197 (bispecific antibody)
VH: EVQLVQSGAEVKKPGESVKISCKASGGSFRSYGISWVRQAPGQGLEWMGGITHFFGITDYAQKFQGRVTITADESTTTAYMELSGLTSDDTAVYYCAREPNDFWNGYYDTHDFDSWGQGTTVTVSSASTKGPEVQLVQSGAEVKKPGASVKVSCKASGYTFTSYWMHWVRQAPGQGLEWIGNINPKGGSNIYNEKFQGRVTMTRDTSISTAYMELSRLRSDDTAVYYCARLDYFGDSFDLWGQGTTVTVSS
VL: B1 VL with D28N, P43S, T55I, G84A, T91S, S93T, Y96H, P100Q
notes: DVD-Ig; also called DVD2197H; DVD2197L
In the case of B2, in the assay with Recombinant Human IL-13 [1], the Kd is 0.14 nM, the koff was 4.4e-05 s⁻¹ and the kon came out at 310000 M⁻¹ s⁻¹. Also, in the assay with Recombinant Human IL-17 [2], the Kd is 0.038 nM, the koff came to 6.2e-05 s⁻¹ and the kon was 1.6e+06 M⁻¹ s⁻¹. The “C-Terminal VD IL13 Neutralization Assay IC50” value with Recombinant Human IL-13 [3] is 0.081 nM. Moreover, in the assay with Recombinant Human IL-17 [4], the “N-Terminal VD IL17 Neutralization Assay IC50” value was determined as 0.005 nM.

B3: DVD2152 (bispecific antibody)
VH: EVTLRESGPGLVKPTQTLTLTCTLYGFSLSTSDMGVDWIRQPPGKGLEWLAHIWWDDVKRYNPALKSRLTISKDTSKNQVVLKLTSVDPVDTATYYCARTVSSGYIYYAMDYWGQGTLVTVSSASTKGPSVFPLAPEVQLVQSGAEVKKPGSSVKVSCKASGYTFTDYEIHWVRQAPGQGLEWMGVNDPESGGTFYNQKFDGRVTLTADESTSTAYMELSSLRSEDTAVYYCTRYSKWDSFDGMDYWGQGTTVTVSS
VL: DIQMTQSPSSLSASVGDRVTISCRASQDIRNYLNWYQQKPGKAPKLLIFYTSKLHSGVPSRFSGSGSGTDYTLTISSLQPEDIATYYCQQGLTPPLTFGGGTKVEIKRTVAAPDIQMTQSPSSLSASVGDRVTITCRASSGIISYIDWFQQKPGKAPKRLIYATFDLASGVPSRFSGSGSGTDYTLTISSLQPEDFATYYCRQVGSYPETFGQGTKLEIKR
On to B3, for which, in the assay with Recombinant Human IL-13 [3], the “N-Terminal VD IL13 Neutralization Assay IC50” value stood at 0.112 nM. For the same molecule, the “C-Terminal VD IL17 Neutralization Assay IC50” value with Recombinant Human IL-17 [4] was 0.0069 nM.

B4: DVD2193 (bispecific antibody)
VH: EVQLVQSGAEVKKPGSSVKVSCKASGGSFGGYGIGWVRQAPGQGLEWMGGITPFFGFADYAQKFQGRVTITADESTTTAYMELSGLTSDDTAVYYCARDPNEFWNGYYSTHDFDSWGQGTTVTVSSASTKGPEVQLVQSGAEVKKPGASVKVSCKASGYTFTSYWMHWVRQAPGQGLEWIGNINPKGGSNIYNEKFQGRVTMTRDTSISTAYMELSRLRSDDTAVYYCARLDYFGDSFDLWGQGTTVTVSS
VL: EIVLTQSPDFQSVTPKEKVTITCRASQDIGSELHWYQQKPDQPPKLLIKYASHSTSGVPSRFSGSGSGTDFTLTINGLEAEDAGTYYCHQTDSLPYTFGPGTKVDIKRTVAAPSVFIFPPDIQMTQSPSSLSASVGDRVTITCRASQGIRNYLNWYQQKPGKAPKLLIYYASNLEVGVPSRFSGSGSGTDYTLTISSLQPEDFATYYCQQDNRFPYTFGGGTKVEIKR
notes: DVD-Ig; also called DVD2193H; DVD2193L
With B4, in the assay with Recombinant Human IL-13 [1], the Kd came out at 0.066 nM, the koff is 3.9e-05 s⁻¹ and the association rate constant (kon) came to 590000 M⁻¹ s⁻¹. Further, in the assay with Recombinant Human IL-17 [2], the Kd was found to be 0.012 nM, the koff turned out to be 2.2e-05 s⁻¹ and the on-rate constant (kon) came to 1.9e+06 M⁻¹ s⁻¹. The “C-Terminal VD IL13 Neutralization Assay IC50” value with Recombinant Human IL-13 [3] is 0.028 nM. Besides, in the assay with Recombinant Human IL-17 [4], the “N-Terminal VD IL17 Neutralization Assay IC50” value is 0.014 nM.

B5: DVD2199 (bispecific antibody)
VH: B2 VH
VL: B4 VL with D28N, P43S, T55I, G84A, T91S, S93T, Y96H, P100Q
notes: DVD-Ig; also called DVD2199H; DVD2199L
On to B5, for which, in the assay with Recombinant Human IL-13 [1], the Kd was determined as 0.026 nM, the koff was 3.4e-05 s⁻¹ and the kon was 1.3e+06 M⁻¹ s⁻¹. In the assay with Recombinant Human IL-17 [2], the Kd was 0.019 nM, the koff stood at 4.4e-05 s⁻¹ and the kon was 2.3e+06 M⁻¹ s⁻¹. Further, the “C-Terminal VD IL13 Neutralization Assay IC50” value with Recombinant Human IL-13 [3] is 0.088 nM. The “N-Terminal VD IL17 Neutralization Assay IC50” value with Recombinant Human IL-17 [4] was found to be 0.0102 nM.

B6: DVD2153 (bispecific antibody)
VH: EVQLVQSGAEVKKPGSSVKVSCKASGYTFTDYEIHWVRQAPGQGLEWMGVNDPESGGTFYNQKFDGRVTLTADESTSTAYMELSSLRSEDTAVYYCTRYSKWDSFDGMDYWGQGTTVTVSSASTKGPSVFPLAPEVTLRESGPGLVKPTQTLTLTCTLYGFSLSTSDMGVDWIRQPPGKGLEWLAHIWWDDVKRYNPALKSRLTISKDTSKNQVVLKLTSVDPVDTATYYCARTVSSGYIYYAMDYWGQGTLVTVSS
VL: DIQMTQSPSSLSASVGDRVTITCRASSGIISYIDWFQQKPGKAPKRLIYATFDLASGVPSRFSGSGSGTDYTLTISSLQPEDFATYYCRQVGSYPETFGQGTKLEIKRTVAAPDIQMTQSPSSLSASVGDRVTISCRASQDIRNYLNWYQQKPGKAPKLLIFYTSKLHSGVPSRFSGSGSGTDYTLTISSLQPEDIATYYCQQGLTPPLTFGGGTKVEIKR
Take B6: the “C-Terminal VD IL13 Neutralization Assay IC50” value with Recombinant Human IL-13 [3] was 2.44 nM. In the assay with Recombinant Human IL-17 [4], the “N-Terminal VD IL17 Neutralization Assay IC50” value amounted to 0.0049 nM.

B7: DVD2151 (bispecific antibody)
VH: EVQLVQSGAEVKKPGSSVKVSCKASGYTFTDYEIHWVRQAPGQGLEWMGVNDPESGGTFYNQKFDGRVTLTADESTSTAYMELSSLRSEDTAVYYCTRYSKWDSFDGMDYWGQGTTVTVSSASTKGPEVTLRESGPGLVKPTQTLTLTCTLYGFSLSTSDMGVDWIRQPPGKGLEWLAHIWWDDVKRYNPALKSRLTISKDTSKNQVVLKLTSVDPVDTATYYCARTVSSGYIYYAMDYWGQGTLVTVSS
VL: DIQMTQSPSSLSASVGDRVTITCRASSGIISYIDWFQQKPGKAPKRLIYATFDLASGVPSRFSGSGSGTDYTLTISSLQPEDFATYYCRQVGSYPETFGQGTKLEIKRTVAAPSVFIFPPDIQMTQSPSSLSASVGDRVTISCRASQDIRNYLNWYQQKPGKAPKLLIFYTSKLHSGVPSRFSGSGSGTDYTLTISSLQPEDIATYYCQQGLTPPLTFGGGTKVEIKR
B7: in the assay with Recombinant Human IL-13 [3], the “C-Terminal VD IL13 Neutralization Assay IC50” value turned out to be 0.526 nM. The “N-Terminal VD IL17 Neutralization Assay IC50” value with Recombinant Human IL-17 [4] was 0.0179 nM.

B8: DVD2196 (bispecific antibody)
VH: EVQLVQSGAEVKKPGASVKVSCKASGYTFTSYWMHWVRQAPGQGLEWIGNINPKGGSNIYNEKFQGRVTMTRDTSISTAYMELSRLRSDDTAVYYCARLDYFGDSFDLWGQGTTVTVSSASTKGPEVQLVQSGAEVKKPGESVKISCKASGGSFRSYGISWVRQAPGQGLEWMGGITHFFGITDYAQKFQGRVTITADESTTTAYMELSGLTSDDTAVYYCAREPNDFWNGYYDTHDFDSWGQGTTVTVSS
VL: DIQMTQSPSSLSASVGDRVTITCRASQGIRNYLNWYQQKPGKAPKLLIYYASNLEVGVPSRFSGSGSGTDYTLTISSLQPEDFATYYCQQDNRFPYTFGGGTKVEIKRTVAAPEIVLTQSPDFQSVTPKEKVTITCRASQNIGSELHWYQQKPDQSPKLLIKYASHSISGVPSRFSGSGSGTDFTLTINGLEAEDAATYYCHQSDTLPHTFGQGTKVDIKR
notes: DVD-Ig; also called DVD2196H; DVD2196L
In the case of B8, in the assay with Recombinant Human IL-13 [1], the Kd amounted to 0.029 nM, the koff was 6.4e-05 s⁻¹ and the kon was found to be 2.2e+06 M⁻¹ s⁻¹. Also, in the assay with Recombinant Human IL-17 [2], the Kd was < 0.0091 nM, the dissociation rate constant (koff) was < 1e-06 s⁻¹ and the kon was 110000 M⁻¹ s⁻¹. For the same molecule, in the assay with Recombinant Human IL-13 [3], the “N-Terminal VD IL13 Neutralization Assay IC50” value stood at 0.029 nM. For the same molecule, in the assay with Recombinant Human IL-17 [4], the “C-Terminal VD IL17 Neutralization Assay IC50” value came to 0.0551 nM.
